Eleven molecules from article PMC5087658, “Essential role of the Dishevelled DEP domain in a Wnt-dependent human-cell-based complementation assay” (Journal of Cell Science, 2016) can be followed below.

For one series, the target named is SNAP–FZD5 (UniProt Q13467). Briefly: FZD5-dependent recruitment of DEP-GFP to the plasma membrane, cells scored by fluorescence microscopy. The conditions noted are these: HEK293T cells, 100 cells scored in each case, read off a plot; for other: % of cells with no FZD5 recruitment: parent: est. 12; for other: % of cells with weak FZD5 recruitment: parent: est. 36; for other: % of cells with strong FZD5 recruitment: parent: est. 52.

The target in series [1] is T1, DVL2 PDZ domain (PDZ_(265-361)), wt, 15N-labelled (human, UniProt O14641 265-361, 15N-labelled).
T1 construct: Dishevelled 2 (DVL2), human, PDZ domain, residues 265-361; Tag was followed by the linker ENLYFQS (TEV site); also called wt 15N-PDZ; minimal PDZ domain of DVL2; source: E. coli BL21-CodonPlus(DE3)-RIL, purified (NiNTA), Lip tag cleaved with TEV protease; not shown: His6, N-terminal, cleaved; Lip, N-terminal, cleaved
T1 sequence (looked up): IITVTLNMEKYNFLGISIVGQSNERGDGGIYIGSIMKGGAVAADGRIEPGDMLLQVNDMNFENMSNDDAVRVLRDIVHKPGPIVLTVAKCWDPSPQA
Briefly: NMR titration; 1H-15N correlation spectra (fast-HSQC or BEST-TROSY) of 100 µM 15N-PDZ alone or with 3x molar excess (300 µM) of DVL-C or Lip–FZD peptide; 298 K, aqueous phosphate buffer at physiological ionic strength, pH 6.7. The conditions noted are these: both partners purified.

Series [2] concerns the molecule itself. Briefly: SEC-MALS; phosphate-buffered saline, GE Superdex S-200 10/300 analytical column; unfractionated purified Lip–DEP. Background: SEC sorts molecules by how far they enter the pores of the column.
Series [3] concerns the molecule itself. Briefly: SEC-MALS; not shown; tetramerisation of the K446M DEP domain.

Values joined by “and” are separate entries in the source; they are usually repeats but may differ in a detail not shown here. Equal entries are not always repeated.

Sequence of SNAP–FZD5 (Q13467 27-585): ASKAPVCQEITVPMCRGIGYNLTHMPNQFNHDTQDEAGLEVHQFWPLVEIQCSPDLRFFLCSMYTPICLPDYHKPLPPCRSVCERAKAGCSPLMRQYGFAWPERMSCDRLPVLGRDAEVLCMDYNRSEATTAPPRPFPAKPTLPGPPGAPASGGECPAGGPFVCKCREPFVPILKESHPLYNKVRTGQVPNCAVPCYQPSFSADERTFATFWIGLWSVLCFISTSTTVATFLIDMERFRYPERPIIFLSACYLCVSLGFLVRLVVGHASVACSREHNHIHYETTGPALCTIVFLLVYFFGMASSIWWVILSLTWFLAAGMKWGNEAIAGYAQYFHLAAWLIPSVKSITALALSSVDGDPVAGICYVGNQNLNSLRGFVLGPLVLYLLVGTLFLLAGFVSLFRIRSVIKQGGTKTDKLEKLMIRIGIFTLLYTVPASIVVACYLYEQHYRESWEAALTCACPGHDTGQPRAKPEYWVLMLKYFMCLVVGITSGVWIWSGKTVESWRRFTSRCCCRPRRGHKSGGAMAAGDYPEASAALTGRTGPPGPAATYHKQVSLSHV

With “DEP–GFP, wt (minimal DEP domain of DVL2) (from UniProt O14641) I447F”, in the series with SNAP–FZD5, the other: % of cells with no FZD5 recruitment is 8 % of cells, the other: % of cells with weak FZD5 recruitment was 34 % of cells and the other: % of cells with strong FZD5 recruitment was 58 % of cells.

For the molecule “DEP–GFP, wt (minimal DEP domain of DVL2) (from UniProt O14641) I447M”, in the series with SNAP–FZD5, the other: % of cells with no FZD5 recruitment was 7 % of cells, the other: % of cells with weak FZD5 recruitment was 41 % of cells and the other: % of cells with strong FZD5 recruitment is 52 % of cells.

Consider “DEP–GFP, wt (minimal DEP domain of DVL2) (from UniProt O14641) I447T”, for which, in the series with SNAP–FZD5, the other: % of cells with no FZD5 recruitment is 7 % of cells, the other: % of cells with weak FZD5 recruitment is 32 % of cells and the other: % of cells with strong FZD5 recruitment was 61 % of cells.

On to “DEP–GFP, wt (minimal DEP domain of DVL2) (from UniProt O14641) K446M”, for which, in the series with SNAP–FZD5, the other: % of cells with no FZD5 recruitment was 75 % of cells, the other: % of cells with weak FZD5 recruitment is 22 % of cells and the other: % of cells with strong FZD5 recruitment was 3 % of cells.

Take “DEP–GFP, wt (minimal DEP domain of DVL2) (from UniProt O14641) L445E”: in the series with SNAP–FZD5, the other: % of cells with no FZD5 recruitment was 80 % of cells and the other: % of cells with weak FZD5 recruitment is 20 % of cells.

B1: C-terminal peptide from Dvl1 (DVL-C) (peptide)
peptide: SEFFVDVM
notes: C-terminal peptide of Dishevelled 1 (Dvl1); Lee et al., 2015; also called DVL-C peptide; source: kindly provided by Jie Zheng (University of California, Los Angeles)
Turning to B1, the binding result in series [1] is listed as “binds”.

B2: Lip–DEP_(417-511), DVL2 DEP domain, wt (domain or fragment, human, UniProt O14641 417-511, looked up)
chain: LSVHTDMASVTKAMAAPESGLEVRDRMWLKITIPNAFLGSDVVDWLYHHVEGFPERREARKYASGLLKAGLIRHTVNKITFSEQCYYVFGDLSGG
notes: Dishevelled 2 (DVL2), human, DEP domain, residues 417-511; Between the 6xHis-Lip tag and the domain stands the linker ENLYFQS (TEV site); also called wt DEP domain; DVL2 DEP_(417-511); source: E. coli BL21-CodonPlus(DE3)-RIL, purified (NiNTA); not shown: Lip, N-terminal, kept
Usually stoichiometry N stands for the number of molecules, sites or subunits per partner or assembly. For B2, in series [2], the “stoichiometry N” value was 2 and 4.

B3: Lip–DEP_(417-511) I447F (domain or fragment, human, UniProt O14641 417-511, looked up)
chain: LSVHTDMASVTKAMAAPESGLEVRDRMWLKFTIPNAFLGSDVVDWLYHHVEGFPERREARKYASGLLKAGLIRHTVNKITFSEQCYYVFGDLSGG
notes: Dishevelled 2 (DVL2), human, DEP domain, residues 417-511, with I447F; also called tetramerisation mutant; source: E. coli BL21-CodonPlus(DE3)-RIL, purified (NiNTA)
For the molecule B3, in series [2], the “stoichiometry N” value is 2.

B4: Lip–DEP_(417-511) I447T (domain or fragment, human, UniProt O14641 417-511, looked up)
chain: LSVHTDMASVTKAMAAPESGLEVRDRMWLKTTIPNAFLGSDVVDWLYHHVEGFPERREARKYASGLLKAGLIRHTVNKITFSEQCYYVFGDLSGG
notes: Dishevelled 2 (DVL2), human, DEP domain, residues 417-511, with I447T; also called tetramerisation mutant; source: E. coli BL21-CodonPlus(DE3)-RIL, purified (NiNTA)
Take B4: in series [2], the “stoichiometry N” value turned out to be 2.

B5: Lip–DEP_(417-511) K446M (domain or fragment, human, UniProt O14641 417-511, looked up)
chain: LSVHTDMASVTKAMAAPESGLEVRDRMWLMITIPNAFLGSDVVDWLYHHVEGFPERREARKYASGLLKAGLIRHTVNKITFSEQCYYVFGDLSGG
notes: Dishevelled 2 (DVL2), human, DEP domain, residues 417-511, with K446M; source: E. coli BL21-CodonPlus(DE3)-RIL, purified (NiNTA)
Regarding B5, in series [3], the “stoichiometry N” value was 4.

B6: Lip–DEP_(417-511) I447M (domain or fragment, human, UniProt O14641 417-511, looked up)
chain: LSVHTDMASVTKAMAAPESGLEVRDRMWLKMTIPNAFLGSDVVDWLYHHVEGFPERREARKYASGLLKAGLIRHTVNKITFSEQCYYVFGDLSGG
notes: Dishevelled 2 (DVL2), human, DEP domain, residues 417-511, with I447M; also called tetramerisation mutant; source: E. coli BL21-CodonPlus(DE3)-RIL, purified (NiNTA)
As to B6, the “stoichiometry N” value in series [2] stood at 2.
